# From paper PMC5432954
# Molecular target: papain (UniProt P00784)
# Experiment: enzyme inhibition assay (Dixon plot); various amounts of recombinant protein with 10 ug papain (1.24 uM final in 350 ul), 0.1 M sodium phosphate pH 6.0, 1 mM EDTA, 2 mM beta-mercaptoethanol, 37°C, substrate BANA; Ki from plots of 1/v versus [I]
# Chain of UniProt P00784 (P00784 134-345): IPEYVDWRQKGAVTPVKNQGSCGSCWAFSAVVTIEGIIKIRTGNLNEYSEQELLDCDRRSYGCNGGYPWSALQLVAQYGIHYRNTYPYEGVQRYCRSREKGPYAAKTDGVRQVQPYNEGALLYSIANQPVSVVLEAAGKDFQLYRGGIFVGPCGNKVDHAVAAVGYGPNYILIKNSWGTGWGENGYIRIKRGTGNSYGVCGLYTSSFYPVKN
substance,measurement,value
"SiCYS-N, N-terminal domain of SiCYS (non-fusion recombinant) (domain or fragment)",Ki,0.079 µM
"SiCYS, sesame seed group II phytocystatin (non-fusion recombinant) (natural protein)",Ki,0.019 µM
